The source of these data is publication PMC11402128, “The stability of FKBP9 maintained by BiP is crucial for glioma progression” (Genes & Diseases, 2023).

This assay concerns the target T1, human recombinant protein BiP (TP305859, Origene) (human, UniProt P11021 19-654).
T1 construct: also called purified BiP; source: bought: Origene (TP305859)
The experiment in a line: SPR; BScreen LB 991 label-free microarray system; proteins printed on the chip and photo-cross-linked; analyte proteins at 200, 400, 800, 1600 and 3200 nM in 10 mM HEPES pH 7.0, 3 mM EDTA, 150 mM NaCl, 0.005% P20; 5 uL/min, 10 min association, 6 min dissociation; constants by slope fitting. Particulars: both partners purified.

T1 sequence (P11021 19-654): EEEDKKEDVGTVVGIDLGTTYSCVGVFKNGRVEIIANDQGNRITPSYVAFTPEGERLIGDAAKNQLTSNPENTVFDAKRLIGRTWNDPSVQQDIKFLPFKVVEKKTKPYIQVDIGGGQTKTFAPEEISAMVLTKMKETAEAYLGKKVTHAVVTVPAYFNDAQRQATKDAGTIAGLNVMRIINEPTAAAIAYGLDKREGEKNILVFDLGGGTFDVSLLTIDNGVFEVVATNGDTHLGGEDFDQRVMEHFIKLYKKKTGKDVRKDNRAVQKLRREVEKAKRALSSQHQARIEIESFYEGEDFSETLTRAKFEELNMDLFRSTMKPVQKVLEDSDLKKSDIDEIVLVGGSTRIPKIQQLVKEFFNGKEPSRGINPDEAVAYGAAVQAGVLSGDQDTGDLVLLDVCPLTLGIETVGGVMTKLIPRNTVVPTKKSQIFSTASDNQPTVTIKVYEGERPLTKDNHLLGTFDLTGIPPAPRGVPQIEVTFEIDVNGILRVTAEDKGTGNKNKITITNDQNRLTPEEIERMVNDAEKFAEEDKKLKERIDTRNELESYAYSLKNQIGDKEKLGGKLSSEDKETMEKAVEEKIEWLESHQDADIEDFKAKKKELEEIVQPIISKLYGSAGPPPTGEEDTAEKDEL

B1: human recombinant protein FKBP9 (TP322307, Origene) (natural protein, UniProt O95302 25-570, looked up)
chain: APVAGLGSDAELQIERRFVPDECPRTVRSGDFVRYHYVGTFPDGQKFDSSYDRDSTFNVFVGKGQLITGMDQALVGMCVNERRFVKIPPKLAYGNEGVSGVIPPNSVLHFDVLLMDIWNSEDQVQIHTYFKPPSCPRTIQVSDFVRYHYNGTFLDGTLFDSSHNRMKTYDTYVGIGWLIPGMDKGLLGMCVGEKRIITIPPFLAYGEDGDGKDIPGQASLVFDVALLDLHNPKDSISIENKVVPENCERISQSGDFLRYHYNGTLLDGTLFDSSYSRNRTFDTYIGQGYVIPGMDEGLLGVCIGEKRRIVVPPHLGYGEEGRGNIPGSAVLVFDIHVIDFHNPSDSISITSHYKPPDCSVLSKKGDYLKYHYNASLLDGTLLDSTWNLGKTYNIVLGSGQVVLGMDMGLREMCVGEKRTVIIPPHLGYGEAGVDGEVPGSAVLVFDIELLELVAGLPEGYMFIWNGEVSPNLFEEIDKDGNGEVLLEEFSEYIHAQVASGKGKLAPGFDAELIVKNMFTNQDRNGDGKVTAEEFKLKDQEAKHDEL
notes: also called purified FKBP9; source: bought: Origene (TP322307)
A word on the Kd: it is the constant that tells how readily two partners part at equilibrium. For B1, the Kd is 0.271 µM.
